From patent publication US20230056486
Where “and” joins values, the source holds several entries; their conditions need not be identical. Identical values can stand only once.

Biological target: T1, (GR)10 dipeptide repeat peptide
T1 chain: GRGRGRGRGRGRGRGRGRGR

B1: clostripain (protein)
chain: NKNQKVTIMYYCDADNNLEGSLLNDIEEMKTGYKDSPNLNLIALVDRSPRYSSDEKVLGEDFSDTRLYKIEHNKANRLDGKNEFPEISTTSKYEANMGDPEVLKKFIDYCKSNYEADKYVLIMANHGGGAREKSNPRLNRAICWDDSNLDKNGEADCLYMGEISDHLTEKQSVDLLAFDACLMGTAEVAYQYRPGNGGFSADTLVASSPVVWGPGFKYDKIFDRIKAGGGTNNEDDLTLGGKEQNFDPATITNEQLGALFVEEQRDSTHANGRYDQHLSFYDLKKAESVKRAIDNLAVNLSNENKKSEIEKLRGSGIHTDLMHYFDEYSEGEWVEYPYFDVYDLCEKINKSENFSSKTKDLASNAMNKLNEMIVYSFGDPSNNFKEGKNGLSIFLPNGDKKYSTYYTSTKIPHWTMQSWYNSIDTVKYGLNPYGKLSWCKDGQDPEINKVGNWFELLDSWFDKTNDVTGGVNHYQW
(GR)10 concentration left at 0 min (LC/MS; 50 µM start; TFA added before enzyme): 39.7 µM and 37.9 µM
(GR)10 concentration left at 30 min (LC/MS; 50 µM start): BLQ
(GR)10 concentration left at 60 min (LC/MS; 50 µM start): BLQ
(GR)10 concentration left at 120 min (LC/MS; 50 µM start): BLQ
(GR)10 left in CSF; Clostripain + DTT-Immobilized-5 min reaction (LC/MS; 200 µM (GR)10 in human CSF) (normalized µM): 58
(GR)10 left in CSF; Clostripain + DTT-Immobilized-60 min reaction (LC/MS; 200 µM (GR)10 in human CSF) (normalized µM): -0
(GR)10 left in CSF; Clostripain-Immobilized-5 min reaction, no DTT (LC/MS; 200 µM (GR)10 in human CSF) (normalized µM): 395
(GR)10 left in CSF; Clostripain-Immobilized-60 min reaction, no DTT (LC/MS; 200 µM (GR)10 in human CSF) (normalized µM): -0
(GR)10 left; Clostripain + DTT-Immobilized-5 min reaction (LC/MS) (µM (normalized to GR concentration)): -0
(GR)10 left; Clostripain + DTT-immobilized-60 min reaction (LC/MS) (µM (normalized to GR concentration)): -0
(GR)10 left; Clostripain + DTT-in solution-5 min reaction (LC/MS) (µM (normalized to GR concentration)): 5.7
(GR)10 left; Clostripain + DTT-in solution-60 min reaction (LC/MS) (µM (normalized to GR concentration)): -0
(GR)10 left; Clostripain + DTT-resin wash from 5 min reaction (LC/MS) (µM (normalized to GR concentration)): -0
(GR)10 left; Clostripain + DTT-resin wash from 60 min reaction (LC/MS) (µM (normalized to GR concentration)): -0
(GR)10 left; Clostripain-Immobilized-5 min reaction, no DTT (LC/MS): 0 µM
(GR)10 left; Clostripain-immobilized-60 min reaction, no DTT (LC/MS): 0 µM
(GR)10 left; Clostripain-in solution-5 min reaction, no DTT (LC/MS): 12.4 µM
(GR)10 left; Clostripain-in solution-60 min reaction, no DTT (LC/MS): 0 µM
(GR)10 left; Clostripain-resin wash from 5 min reaction, no DTT (LC/MS): 0 µM
(GR)10 left; Clostripain-resin wash from 60 min reaction, no DTT (LC/MS): 0 µM

B2: Proteinase K (protein)
chain: AAQTNAPWGLARISSTSPGTSTYYYDESAGQGSCVYVIDTGIEASHPEFEGRAQMVKTYYYSSRDGNGHGTHCAGTVGSRTYGVAKKTQLFGVKVLDDNGSGQYSTIIAGMDFVASDKNNRNCPKGVVASLSLGGGYSSSVNSAAARLQSSGVMVAVAAGNNNADARNYSPASEPSVCTVGASDRYDRRSSFSNYGSVLDIFGPGTSILSTWIGGSTRSISGTSMATPHVAGLAAYLMTLGKTTAASACRYIADTANKGDLSNIPFGTVNLLAYNNYQA
(GR)10 concentration left at 0 min (LC/MS; 50 µM start; TFA added before enzyme): 44.9 µM and 49.4 µM
(GR)10 concentration left at 2.5 min (LC/MS; 50 µM start): 55.8 µM and 55.4 µM
(GR)10 concentration left at 5 min (LC/MS; 50 µM start): 54.4 µM and 48.8 µM
(GR)10 concentration left at 10 min (LC/MS; 50 µM start): 50.3 µM and 44.1 µM
